Two substances from patent EP4335870A1 can be followed below.

The assay deals with SARS-CoV-2 Spike RBD K417N/N501Y (SARS-CoV-2) (UniProt P0DTC2).

“ACE2-Fc IgG Hybrid Protein (ACE2-IgG1Fc, wildtype) (Fc fusion)” gave a Kd of 7.6 nM, a koff of 0.00347 s⁻¹ and a kon of 457000 M⁻¹ s⁻¹.

“ACE2(T27Y/H34A/H374N)-IgG1Fc (from UniProt Q9BYF1 18-615) (Fc fusion)” gave a Kd of 0.447 nM, a koff of 0.000334 s⁻¹ and a kon of 747000 M⁻¹ s⁻¹.
